Publication doi:10.1101/2025.09.08.674988

Tests used:
[1] = target: FlAsH-labeled NS5B(Δ21)-FlAsH-His (Hepatitis C virus genotype 2a); test: FRAP on a supported lipid bilayer
[2] = dynamic light scattering; details: other: dynamic light scattering
[3] = target: FlAsH-labeled NS5B(Δ21)-FlAsH-His (Hepatitis C virus genotype 2a); test: fluorescence polarisation
[4] = target: NS5B(Δ21)-FlAsH-His (Hepatitis C virus genotype 2a); test: dynamic light scattering
[5] = target: FlAsH-labeled NS5B(Δ21)-FlAsH-His (Hepatitis C virus genotype 2a); test: fluorescence polarisation; remark: listed apart in the source
[6] = target: FlAsH-labeled NS5B(Δ21)-FlAsH-His (Hepatitis C virus genotype 2a); test: fluorescence polarisation; remark: listed apart in the source

Substance: FlAsH-labeled NS5B(Δ21)-FlAsH-His (enzyme)
- Kd [1]: < 10 nM

Substance: NS5B(Δ21)-FlAsH-His
- K0.5 [2]: K0.5 ∼ 1.5 µM

Substance: NS5B(Δ21)-FlAsH-His (enzyme)
- Kd [3]: 1000 nM
- Kd [4]: 750 nM
- Kd [5]: 560 nM
- Kd [6]: 1100 nM
